Substitutions are numbered along the chain they refer to. Numbers in names are those of the source.
What was measured:
mouse serum albumin [1] = target: T1, mouse serum albumin (mouse, UniProt P07724 25-608); test: SPR Biacore2000 sensorgrams
T1 construct: Bought; also called MSA
Procedure: (§1) The binding of the ABD variants obtained in Example 1 to human serum albumin (HSA), rat serum albumin (RSA), cynomolgus serum albumin (CSA) and mouse serum albumin (MSA) was analyzed by surface plasmon resonance using a Biacore2000 instrument.

rat serum albumin [2] = target: T2, rat serum albumin (rat, UniProt P02770 25-608); test: SPR Biacore2000 sensorgrams
T2 construct: Bought; also called RSA
Procedure: as §1

human serum albumin [3] = target: T3, human serum albumin (human, UniProt P02768 25-609); test: SPR Biacore2000, HSA immobilized on CM-5, polypeptide as analyte, 1:1 Langmuir fit, relative values
T3 construct: Bought recombinant product; also called HSA; Albucult
Procedure: (§2) Biosensor analysis on a Biacore2000 instrument (GE Healthcare) was performed with HSA (Albucult®, Novozymes), CSA (purified in-house from cynomolgus serum), RSA (Sigma-Aldrich, Cat. No. A6272) and MSA (Sigma-Aldrich, Cat. No. A3559) immobilized by amine coupling onto the carboxylated dextran layer of the surfaces of CM-5 chips (research grade; GE Healthcare) according to the manufacturer's recommendations.
(§3) ABD variants were used as analytes and were injected in duplicates over the chip at three analyte concentrations (2.5, 10 and 40 nM). The association phase was 5 min followed by a long dissociation phase (60 min) to account at least partially for the slow off-rate of the ABD variants. […] Therefore, all KD's are given as relative KD values only.
(§4) After subtraction of reference surface and buffer injection, curves were fitted to a 1:1 (Langmuir) binding model using BlAevaluation software with correction for mass transfer and with RUmax set as a local parameter.

mouse serum albumin [4] = target: T1, mouse serum albumin; test: SPR Biacore2000, albumin immobilized on CM-5, polypeptide as analyte, relative KD
Procedure: as §2, §3, §4

rat serum albumin [5] = target: T2, rat serum albumin; test: as above
Procedure: as §2, §3, §4

cynomolgus serum albumin = target: T4, cynomolgus serum albumin (cynomolgus); test: as above
T4 construct: Purified from serum; also called CSA
Procedure: as §2, §3, §4

human serum albumin [6] = target: T3, human serum albumin; test: as above
Procedure: as §2, §3, §4

T3 sequence (P02768 25-609 limits assumed): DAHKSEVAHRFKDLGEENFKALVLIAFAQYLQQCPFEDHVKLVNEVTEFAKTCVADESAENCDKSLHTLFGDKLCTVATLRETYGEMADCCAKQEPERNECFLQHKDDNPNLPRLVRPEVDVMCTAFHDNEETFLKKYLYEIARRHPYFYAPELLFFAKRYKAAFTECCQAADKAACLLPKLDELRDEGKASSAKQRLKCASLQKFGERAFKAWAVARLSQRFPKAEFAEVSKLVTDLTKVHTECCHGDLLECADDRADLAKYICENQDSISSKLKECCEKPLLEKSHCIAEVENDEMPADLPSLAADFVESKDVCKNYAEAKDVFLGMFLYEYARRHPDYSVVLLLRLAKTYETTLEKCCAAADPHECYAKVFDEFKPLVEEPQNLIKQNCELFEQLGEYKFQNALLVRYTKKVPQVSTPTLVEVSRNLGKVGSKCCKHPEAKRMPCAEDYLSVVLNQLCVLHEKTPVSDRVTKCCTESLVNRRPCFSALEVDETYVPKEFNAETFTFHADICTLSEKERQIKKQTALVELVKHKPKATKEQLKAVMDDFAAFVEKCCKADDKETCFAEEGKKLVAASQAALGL
T2 sequence (P02770 25-608 limits assumed): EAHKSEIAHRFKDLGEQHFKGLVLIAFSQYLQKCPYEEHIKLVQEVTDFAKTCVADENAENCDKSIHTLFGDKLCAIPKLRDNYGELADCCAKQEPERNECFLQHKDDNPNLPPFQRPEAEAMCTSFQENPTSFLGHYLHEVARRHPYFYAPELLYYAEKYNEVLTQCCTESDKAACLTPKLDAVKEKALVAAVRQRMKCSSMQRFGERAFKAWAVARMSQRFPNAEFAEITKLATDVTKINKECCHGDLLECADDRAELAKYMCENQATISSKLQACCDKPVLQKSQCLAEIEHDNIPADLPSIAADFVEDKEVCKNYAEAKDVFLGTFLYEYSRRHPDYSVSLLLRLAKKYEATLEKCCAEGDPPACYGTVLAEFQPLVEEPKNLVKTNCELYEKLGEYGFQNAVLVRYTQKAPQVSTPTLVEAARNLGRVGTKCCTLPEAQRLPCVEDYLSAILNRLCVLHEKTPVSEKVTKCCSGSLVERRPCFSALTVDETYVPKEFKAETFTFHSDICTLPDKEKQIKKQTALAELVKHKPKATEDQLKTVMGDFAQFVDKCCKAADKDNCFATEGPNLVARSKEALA
T4 sequence (A2V9Z4 25-608): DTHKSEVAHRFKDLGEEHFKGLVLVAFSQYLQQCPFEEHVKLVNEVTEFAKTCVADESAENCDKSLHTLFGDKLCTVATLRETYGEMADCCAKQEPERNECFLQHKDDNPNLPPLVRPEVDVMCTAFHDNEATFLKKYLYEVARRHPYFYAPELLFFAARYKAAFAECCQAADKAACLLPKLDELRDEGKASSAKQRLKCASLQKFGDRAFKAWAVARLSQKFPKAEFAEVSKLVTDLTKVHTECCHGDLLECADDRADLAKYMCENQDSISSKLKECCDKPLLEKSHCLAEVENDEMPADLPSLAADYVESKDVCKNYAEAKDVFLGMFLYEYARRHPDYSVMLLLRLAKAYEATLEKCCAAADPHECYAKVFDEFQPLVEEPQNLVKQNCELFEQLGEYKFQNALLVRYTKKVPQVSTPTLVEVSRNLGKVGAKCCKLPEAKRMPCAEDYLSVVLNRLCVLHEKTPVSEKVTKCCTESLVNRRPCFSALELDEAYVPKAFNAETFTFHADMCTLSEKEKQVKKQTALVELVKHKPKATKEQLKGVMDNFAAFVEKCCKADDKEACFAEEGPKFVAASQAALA

B1: PEP06923 (designed binder)
chain: GSSLAEAKVLANRELDKYGVSDFYKRLINKAKTVEGVEALKLHILAALP
notes: also called ABD variant; control polypeptide
Does B1 bind (mouse serum albumin [1])?
Result: binds

Does B1 bind (rat serum albumin [2])?
Result: binds

B2: PEP12379 (designed binder)
chain: GSSLAEAKEAANAELDSYGVSDFYKNLIDKAKTVEGVEALKDAILAALP
notes: R23N against PEP07843 (position counted on the 46-mer without GSS); Control polypeptide, expressed in E. coli; also called ABD variant; R23N variant of PEP07843
Does B2 bind (mouse serum albumin [1])?
Result: binds

Does B2 bind (rat serum albumin [2])?
Result: binds

And the Kd (human serum albumin [3])?
The Kd was 14 pM.

What about the koff (human serum albumin [3]) of the same binder?
The koff was 2.36e-05 s⁻¹.

What about the kon (human serum albumin [3]) of the same binder?
Its kon is 1.7e+06 M⁻¹ s⁻¹.

B3: PEP12380 (designed binder)
chain: B2 chain with N26K
notes: Inventive variant; 46 residues with an N-terminal GSS extension; R23K against PEP07843 (position counted on the 46-mer without GSS); Expressed in E. coli; also called ABD variant; R23K variant of PEP07843
Which results are given for B3?
Kd (human serum albumin [3]): 7.5 pM; koff (human serum albumin [3]): 2.62e-05 s⁻¹; kon (human serum albumin [3]): 3.48e+06 M⁻¹ s⁻¹; Kd (mouse serum albumin [4]): 117 pM; Kd (rat serum albumin [5]): 9.3 pM; Kd (cynomolgus serum albumin): 11 pM; Kd (human serum albumin [6]): 7.5 pM

B4: PEP12381 (designed binder)
chain: B2 chain with N26S
notes: Control polypeptide; 46 residues with an N-terminal GSS extension; R23S against PEP07843 (position counted on the 46-mer without GSS); Expressed in E. coli; also called ABD variant; R23S variant of PEP07843
Does B4 bind (mouse serum albumin [1])?
Result: binds

Does B4 bind (rat serum albumin [2])?
Result: binds

And the Kd (human serum albumin [3])?
Its Kd is 17 pM.

What about the koff (human serum albumin [3]) of the same binder?
Its koff is 3.08e-05 s⁻¹.

And the kon (human serum albumin [3])?
The kon was 1.83e+06 M⁻¹ s⁻¹.

B5: PEP07843 (designed binder)
chain: B2 chain with N26R
notes: single Arg at position 23 of the 46-mer; GSS extension at the N-terminus; also called ABD variant; control
With B5 as the binder, how does the Kd (human serum albumin [3]) read?
Its Kd is 6.7 pM.

What about the koff (human serum albumin [3]) of the same binder?
Its koff is 2.99e-05 s⁻¹.

And the kon (human serum albumin [3])?
Its kon is 4.49e+06 M⁻¹ s⁻¹.

What about the Kd (mouse serum albumin [4]) of the same binder?
Its Kd is 87 pM.

And the Kd (rat serum albumin [5])?
The Kd was 8.2 pM.

What about the Kd (cynomolgus serum albumin) of the same binder?
The Kd was 9.8 pM.

And the Kd (human serum albumin [6])?
Its Kd is 6.7 pM.
